Laboratory results reported in patent US20230181640A1 (SHANGHAI ABELZETA, published 2023).
Positions count from the first letter of the chain named.

T1: hBCMA-ECD-Fc (fusion protein of human BCMA extracellular domain Met1-Ala54 and human IgG1 Fc fragment … (human, UniProt Q02223 1-54))
T1 construct: range 1-54; also the immunogen; also called soluble extracellular domain of human BCMA; not shown: human IgG1 Fc fragment, Pro100-Lys330
T1 sequence (looked up): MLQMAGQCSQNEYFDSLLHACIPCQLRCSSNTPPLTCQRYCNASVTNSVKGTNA

T2: Recombinant human TACI/TNFRSF13B Fc chimeric protein, CF (hTACI-ECD-Fc) (human, UniProt O14836 1-165)
T2 construct: extracellular domain; bought reagent; not shown: Fc part of the bought chimera is not described
T2 sequence (looked up): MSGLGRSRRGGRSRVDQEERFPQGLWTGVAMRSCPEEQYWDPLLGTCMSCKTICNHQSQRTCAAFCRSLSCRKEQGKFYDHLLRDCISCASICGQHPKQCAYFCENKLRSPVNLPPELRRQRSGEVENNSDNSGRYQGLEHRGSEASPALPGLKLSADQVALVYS

T3: human BCMA on cells (L-BCMA+, K562-BCMA+, A549-BCMA-1D6) (human, UniProt Q02223 1-184)
T3 construct: whole, on cells; the cell line of each assay is named under assay; also called L-BCMA-1E6-A4; K562-BCMA-B22D8
T3 sequence (looked up): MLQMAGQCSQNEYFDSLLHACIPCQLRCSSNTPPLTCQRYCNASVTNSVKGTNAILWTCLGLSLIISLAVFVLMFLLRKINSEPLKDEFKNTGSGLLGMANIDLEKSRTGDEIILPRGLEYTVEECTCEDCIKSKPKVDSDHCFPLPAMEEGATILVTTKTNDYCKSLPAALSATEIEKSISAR

B1: hybridoma antibody 109C5F3C1 (mAb010) (antibody, V domains shown)
VH: EVQLQQSGPVLVKPGASVKMSCKVSGYTFTDYYMNWVKQSHGKSLEWIGVITPYNGANRYNQKFKGKATLTVDKSSSTAYMEVSSLTSEDSAVYYCARGDSIYVMDYWGQGTSVIVSS
VL: not shown
notes: murine; re-named CP06; also called CP06
B2: hybridoma antibody 99B3G3 (mAb002) (antibody, IgG1, V domains shown)
VH: EVQLQQSGPVLVKPGASVKMSCKASGYTFTDLYMNWVKQSHGKSLEWIGVINPYNGGTSYNQKFKAKATLTVDKSSITAYMELNSLTSEDSAVYYCARGDSIYVMDYWGQGTSVTVSS
VL: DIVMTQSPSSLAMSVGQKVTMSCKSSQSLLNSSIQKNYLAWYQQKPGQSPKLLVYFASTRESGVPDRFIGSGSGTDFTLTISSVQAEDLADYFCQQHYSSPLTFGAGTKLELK
notes: murine hybridoma antibody, IgG1,κ; re-named CP02; also called CP02
B3: hybridoma antibody 100H2D12C6 (mAb009) (antibody, IgG1, V domains shown)
VH: B2 VH
VL: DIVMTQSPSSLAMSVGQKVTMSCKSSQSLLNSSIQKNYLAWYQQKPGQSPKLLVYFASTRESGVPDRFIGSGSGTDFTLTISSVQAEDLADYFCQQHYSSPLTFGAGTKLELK
notes: murine, IgG1,κ
B4: hybridoma clone 97B8G8D12 (antibody, V domains shown)
VH: B2 VH
VL: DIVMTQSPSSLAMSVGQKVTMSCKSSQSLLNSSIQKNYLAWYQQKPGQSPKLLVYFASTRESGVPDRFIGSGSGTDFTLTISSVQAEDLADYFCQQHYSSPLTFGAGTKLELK
notes: murine hybridoma supernatant; gave no antibody in small-batch production
B5: hybridoma clone 107A9A4D2 (antibody, V domains shown)
VH: B2 VH with V37L, S44R, A66G, I77S, E82D, V114F
VL: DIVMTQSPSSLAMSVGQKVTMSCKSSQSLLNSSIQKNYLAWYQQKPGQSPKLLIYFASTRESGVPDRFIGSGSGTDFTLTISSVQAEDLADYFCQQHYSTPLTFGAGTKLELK
notes: murine hybridoma supernatant
B6: hybridoma antibody 143D6F4 (mAb011) (antibody, IgG2b, V domains shown)
VH: B2 VH with L32Y, Y33S, M34L, I51V, Y60H, A66G, I77S, G99P
VL: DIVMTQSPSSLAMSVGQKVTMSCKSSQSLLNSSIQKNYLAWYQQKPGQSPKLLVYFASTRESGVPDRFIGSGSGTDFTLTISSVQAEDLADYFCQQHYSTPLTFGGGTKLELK
notes: murine, IgG2b,κ; re-named CP07; also called CP07
B7: hybridoma clone 107A11F1B7 (antibody, V domains shown)
VH: B2 VH with V37L, S44R, A66G, I77S, E82D, V114F
VL: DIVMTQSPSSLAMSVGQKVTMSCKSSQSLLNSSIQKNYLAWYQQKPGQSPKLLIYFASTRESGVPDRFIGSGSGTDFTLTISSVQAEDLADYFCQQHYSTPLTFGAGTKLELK
notes: murine hybridoma supernatant; re-named CP04; also called CP04
B8: hybridoma antibody 151A9A4 (mAb012) (antibody, IgG2b, V domains shown)
VH: B2 VH with L32Y, Y33S, M34L, I51V, S59T, A66G, I77S, G99P, Y107S
VL: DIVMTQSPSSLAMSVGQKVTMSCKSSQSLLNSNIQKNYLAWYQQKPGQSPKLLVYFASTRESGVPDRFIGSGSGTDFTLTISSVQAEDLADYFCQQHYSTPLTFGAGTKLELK
notes: murine, IgG2b,κ; re-named CP08; also called CP08
B9: hybridoma antibody 102A12H6 (mAb003) (antibody, IgG1, V domains shown)
VH: EVQLQQSGPELVKPGASVKISCKASGYSFTGYYMNWVKQSPEKSLEWIGEINSSTGGTTYNQKFKAKATMTVDKSSNTAYMELKSLTSEDSAVYYCRYYGSDWHFDVWGTGTTVTVSS
VL: QIVLTQSPALMSASPGEKVTMTCSASSSVSYMYWYQQKPRSSPKPWIYLTSSLASGVPARFSGSGSGTSYSLTISTMEAEDAATYYCQQWSSDPLTFGAGTKLELK
notes: murine hybridoma antibody, IgG1,κ
B10: hybridoma antibody 105C10F1 (mAb004) (antibody, IgG2b, V domains shown)
VH: EVKLLQSGGGLVQPGGSLKLSCAASGIDFSRYWMSWVRRAPGKGLEWIGEINPDSSTINYAPSLKDKFIISRDAAKNTLYLQMSKVRSEDTALYYCATLYYDYDGDYAMDYWGQGTSVTVSS
VL: DIVMTPSQKFMSTSVGDRVSVTCKASQNVGTNVAWYQQKPGQSPKALIYSASYRYSGVPDRFTGSGSGTDFTLTISNVQSEDLAEYFCQHYNSYPFTFGSGTKLEIK
notes: murine hybridoma antibody, IgG2b,κ; re-named CP03; also called CP03
B11: hybridoma antibody 113B3F12 (mAb008) (antibody, IgG2b, V domains shown)
VH: EVQLQQSGPVLVKPGASVKMSCKASGYTFTDYYMNWVKQSHGKSLEWIGVINPYNGGTDYNQKFKGKATLTVDKSSSTAYMELNSLTSEDSAVYYCARRRESYGTSYQGAYFDSWGQGTTLTVSS
VL: DIQMTQTTSSLSASLGDRVTISCRASQDISNYLNWYQQKPDGTVKLLIYYTSRLHSGVPSRFSGSGSGTDYSLSISDLEQEDIATYFCQQVITLPWTFGGGTKLEIK
notes: murine hybridoma antibody, IgG2b,κ
B12: hybridoma antibody 6G10-1D7 (mAb001) (antibody, IgG1, V domains shown)
VH: EVQLQQSGPELVKPGASMKISCKASDYSFTDYIMTWVKQSHGKNLEWIGLINPYNGGTTYNQKFKDKATFTVDKSSTTAYMDLLSLTSEDSAVYYCARRGITTDYYTMDYWGQGTSVTVSS
VL: DIVMTQSQRFMSTSVGDRVSITCKASQSVGTAVAWYQQTPGQFPKLLIYSTSNRYTGVPDRFTGSGSGTDFTLTISNMQSEDLADYFCQQYSTYPLTFGSGTKLELK
notes: tested as supernatant and purified; also called CP01
B13: hybridoma antibody 152D8E8 (mAb013) (antibody, IgG1, V domains shown)
VH: QVTLKESGPGILQSSQTLSLTCSFSGFSLNTSGMGVNWIRQSSGKDLEWLAHIYWNDDKRYNPSLKSRLTISKDTSRNQVFLRITSVDATDTATYFCCRSRLSFDYWGHGTTLTVSS
VL: DIKMTQSPSSMYVSLGERVTITCKASQDINRNLSWFQQKPGKSPKTLIYRANRLVDGVPLRFSGSGSGQDYSLTISSLEYEDMGIYYCLQYDEFPRTFGGGTKLEIK
notes: murine, IgG1,κ; re-named CP09; also called CP09
B14: chimeric antibody of hybridoma 99B3G3 (antibody, human IgG1, kappa, V domains shown)
VH: B2 VH
VL: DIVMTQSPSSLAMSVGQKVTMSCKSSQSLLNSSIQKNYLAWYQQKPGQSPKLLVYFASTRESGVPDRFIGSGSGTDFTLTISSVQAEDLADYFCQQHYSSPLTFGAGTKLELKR
notes: IgG1,κ chimeric antibody, HEK 293T supernatant
B15: chimeric antibody 107A9A4D2VH/VL-2 (antibody, human IgG1, kappa, V domains shown)
VH: B2 VH with V37L, S44R, A66G, I77S, E82D, V114F
VL: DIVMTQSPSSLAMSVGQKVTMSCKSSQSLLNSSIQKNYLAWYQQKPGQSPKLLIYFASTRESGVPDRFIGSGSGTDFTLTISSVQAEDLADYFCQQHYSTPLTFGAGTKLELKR
notes: IgG1,κ chimeric antibody, HEK 293T supernatant; also called 107A9A4D2VH paired with 107A9A4D2VL-2
B16: chimeric antibody of hybridoma 105C10F1 (antibody, human IgG1, kappa, V domains shown)
VH: B10 VH
VL: DIVMTPSQKFMSTSVGDRVSVTCKASQNVGTNVAWYQQKPGQSPKALIYSASYRYSGVPDRFTGSGSGTDFTLTISNVQSEDLAEYFCQHYNSYPFTFGSGTKLEIKR
notes: as for B14
B17: chimeric antibody of hybridoma 113B3F12 (antibody, human IgG1, kappa, V domains shown)
VH: B11 VH
VL: DIQMTQTTSSLSASLGDRVTISCRASQDISNYLNWYQQKPDGTVKLLIYYTSRLHSGVPSRFSGSGSGTDYSLSISDLEQEDIATYFCQQVITLPWTFGGGTKLEIKR
notes: as for B14
B18: chimeric antibody of hybridoma 6G10-1D7 (antibody, human IgG1, kappa, V domains shown)
VH: B12 VH
VL: DIVMTQSQRFMSTSVGDRVSITCKASQSVGTAVAWYQQTPGQFPKLLIYSTSNRYTGVPDRFTGSGSGTDFTLTISNMQSEDLADYFCQQYSTYPLTFGSGTKLELKR
notes: as for B14

Molecular target: T1, hBCMA-ECD-Fc (fusion protein of human …)
Assay: ELISA, hybridoma supernatant

In order of rising “ELISA (OD450 nm)” value:
1. B12  2.9 OD450
2. B4  3.06 OD450
3. B6  3.26 OD450
4. B8  3.34 OD450
5. B3  3.37 OD450
6. B10  3.42 OD450
7. B5  3.51 OD450
8. B7  3.53 OD450
9. B1  3.57 OD450
10. B9  3.6 OD450
11. B2  3.68 OD450
12. B11  3.9 OD450

Molecular target: T4, cynoBCMA-ECD-Fc (machin BCMA extracellular domain Fc fusion) (machin)
T4 construct: extracellular domain; also called soluble extracellular domain of machin BCMA
Assay: ELISA, hybridoma supernatant

In order of falling “ELISA (OD450 nm)” value:
1. B2  3.65 OD450
2. B5  3.58 OD450
3. B9  3.53 OD450
4. B7  3.5 OD450
5. B3  3.48 OD450
6. B1  3.41 OD450
7. B6  3.4 OD450
8. B8  3.4 OD450
9. B4  3.37 OD450
10. B13  3.31 OD450
11. B12  1.95 OD450
12. B10  0.18 OD450
13. B11  0.18 OD450

Molecular target: T5, Recombinant hFc fusion protein control (NC-Fc)
T5 construct: negative control antigen of the screens; also called NC-hFc
Assay: ELISA, hybridoma supernatant

In order of rising “ELISA (OD450 nm)” value:
1. B12  0.08 OD450
2. B10  0.1 OD450
3. B9  0.12 OD450
4. B3  0.13 OD450
5. B4  0.13 OD450
6. B2  0.14 OD450
7. B11  0.14 OD450
8. B6  0.2 OD450
9. B13  0.23 OD450
10. B8  0.24 OD450
11. B1  0.57 OD450

Molecular target: T1, hBCMA-ECD-Fc (fusion protein of human …)
Assay: ELISA, purified hybridoma antibody

In order of falling EC50:
1. B1  0.18 nM
2. B8  0.17 nM
3. B6  0.15 nM
4. B11  0.15 nM
5. B9  0.058 nM
6. B10  0.038 nM
7. B12  0.034 nM
8. B3  0.033 nM
9. B2  0.032 nM

Molecular target: T4, cynoBCMA-ECD-Fc (machin BCMA …)
Assay: ELISA, purified hybridoma antibody

In order of falling EC50:
1. B2  0.23 nM
2. B1  0.18 nM
3. B6  0.17 nM
4. B8  0.15 nM
5. B9  0.062 nM
6. B3  0.033 nM

Molecular target: T2, Recombinant human TACI/TNFRSF13B Fc …
Assay: ELISA, purified hybridoma antibody

B1: no binding.
B2: no binding.
B3: no binding.
B6: no binding.
B8: no binding.
B13: no binding.
B9: no binding.
B10: no binding.
B12: no binding.

Molecular target: T1, hBCMA-ECD-Fc (fusion protein of human …)
Assay: ELISA, chimeric antibody supernatant; note: test concentration or dose not given here

In order of rising “ELISA (OD450 nm)” value:
1. B17  0.09 OD450
2. B14  2.3 OD450
3. B18  2.35 OD450
4. B16  2.39 OD450
5. B15  2.45 OD450

Molecular target: T3, human BCMA on cells (L-BCMA+, …)
Assay: FACS, hybridoma supernatant, BCMA+ cells; note: test concentration or dose not given here

In order of falling “FACS (MFI)” value:
1. B7  5180 MFI
2. B5  4650 MFI
3. B11  3890 MFI
4. B12  3880 MFI
5. B8  2920 MFI
6. B1  2890 MFI
7. B10  1960 MFI
8. B2  1930 MFI
9. B6  1510 MFI
10. B3  1140 MFI
11. B9  762 MFI
12. B4  358 MFI

Molecular target: T3, human BCMA on cells (L-BCMA+, …)
Assay: FACS, chimeric antibody supernatant, L-BCMA+ cells; note: test concentration or dose not given here

In order of falling “FACS (MFI)” value:
1. B18  3470 MFI
2. B14  2180 MFI
3. B16  1800 MFI
4. B15  525 MFI
5. B17  37.5 MFI
